Measurements from patent US20260151494A1 (ARO BIOTHERAPEUTICS, published 2026).

Key:
[1] = molecular target: T1, apical domain of human CD71 (human, UniProt P02786 189-383, limits assumed); assay: primary ELISA; also: test concentration or dose not given here
T1 construct: domain: apical domain; Screen 4 panned on human apical domains, the ELISA text says only 'apical domain'

[2] = molecular target: T2, human CD71 extracellular domain (human, UniProt P02786 89-760, biotinylated); assay: primary ELISA; also: test concentration or dose not given here
T2 construct: also called hCD71; CD71-ECD
T2 sequence (P02786 89-760): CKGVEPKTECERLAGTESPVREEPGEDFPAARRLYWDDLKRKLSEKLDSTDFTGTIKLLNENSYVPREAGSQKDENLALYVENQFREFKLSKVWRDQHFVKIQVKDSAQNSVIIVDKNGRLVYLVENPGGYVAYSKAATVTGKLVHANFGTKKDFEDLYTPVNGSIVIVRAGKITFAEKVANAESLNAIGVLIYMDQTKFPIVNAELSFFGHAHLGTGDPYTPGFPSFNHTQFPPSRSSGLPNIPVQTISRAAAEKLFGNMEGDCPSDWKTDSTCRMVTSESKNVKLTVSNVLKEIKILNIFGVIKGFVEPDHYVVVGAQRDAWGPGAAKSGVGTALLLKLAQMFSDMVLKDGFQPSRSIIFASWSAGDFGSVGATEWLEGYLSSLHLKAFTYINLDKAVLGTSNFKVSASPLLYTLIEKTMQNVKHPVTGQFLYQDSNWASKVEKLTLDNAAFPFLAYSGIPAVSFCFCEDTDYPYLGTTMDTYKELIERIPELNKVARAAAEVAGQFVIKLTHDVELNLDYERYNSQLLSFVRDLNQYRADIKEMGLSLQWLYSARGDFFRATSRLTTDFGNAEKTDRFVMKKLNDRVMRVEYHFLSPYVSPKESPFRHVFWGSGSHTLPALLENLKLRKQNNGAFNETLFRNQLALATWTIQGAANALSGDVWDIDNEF

[3] = molecular target: T1, apical domain of human CD71; assay: primary ELISA, RLU over HSA
[4] = molecular target: T2, human CD71 extracellular domain; assay: primary ELISA, RLU over HSA

T1 sequence (P02786 189-383 limits assumed): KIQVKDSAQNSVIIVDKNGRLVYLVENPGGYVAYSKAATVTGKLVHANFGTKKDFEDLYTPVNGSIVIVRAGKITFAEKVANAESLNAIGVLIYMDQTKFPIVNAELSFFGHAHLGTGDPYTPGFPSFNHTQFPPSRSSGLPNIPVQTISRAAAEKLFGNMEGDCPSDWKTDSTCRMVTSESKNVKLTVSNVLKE

| RLU [1] | RLU [2] | Apical domain:HSA [3] | hCD71:HSA [4] | Binder |
| --- | --- | --- | --- | --- |
| 4.58e+06 RLU | 2.93e+06 RLU | 358 | 229 | CD71-binding FN3 domain of SEQ ID NO: 497 (designed binder) MLPAPKNLVVSRVTEDSARLSWTAPDAAFDSFFIGYLEPQPPGEAITLLVPGSERSYDLTGLKPGTEYNVTIQGVKGGFPSKPLYAYFTT |
| 2.68e+06 RLU | 1.22e+06 RLU | 172 | 78 | CD71-binding FN3 domain of SEQ ID NO: 504 (designed binder) MLPAPKNLVVSRVTEDSARLSWTAPDAAFDSFFIGYLEPQPPGEAIGLVVPGSERSYDLTGLKPGTEYNVTIQGVKGGFPSHPLGAIFTT |
| 6.4e+06 RLU | 6.59e+06 RLU | 15 | 15 | CD71-binding FN3 domain of SEQ ID NO: 527 (designed binder) MLPAPKNLVVSRVTEDSARLSWTAPDAAFDSFFIGYLEPQPPGEAIHLYVPGSERSYDLTGLKPGTEYNVTIQGVKGGFPSEPLIANFTT |
| 2.72e+06 RLU | 2.52e+06 RLU | 201 | 186 | CD71-binding FN3 domain of SEQ ID NO: 513 (designed binder) MLPAPKNLVVSRVTEDSARLSWTAPDAAFDSFFIGYLEPQPPGEAISLYVPGSERSYDLTGLKPGTEYNVTIQGVKGGFPSLPLAAQFTT |
| 4.88e+06 RLU | 3.21e+06 RLU | 606 | 399 | CD71-binding FN3 domain of SEQ ID NO: 501 (designed binder) MLPAPKNLVVSRVTEDSARLSWTAPDAAFDSFFIGYLEPQPPGEAISLLVPGSERSYDLTGLKPGTEYNVTIQGVKGGFPSVPLSAIFTT |
| 3.95e+06 RLU | 3.22e+06 RLU | 232 | 190 | CD71-binding FN3 domain of SEQ ID NO: 524 (designed binder) MLPAPKNLVVSRVTEDSARLSWTAPDAAFDSFFIGYLEPQPPGEAIHLWVPGSERSYDLTGLKPGTEYNVTIQGVKGGFPSMPLSAIFTT |
| 5.58e+06 RLU | 5.18e+06 RLU | 182 | 169 | CD71-binding FN3 domain of SEQ ID NO: 528 (designed binder) MLPAPKNLVVSRVTEDSARLSWTAPDAAFDSFFIGYLEPQPPGEAITLLVPGSERSYDLTGLKPGTEYNVTIQGVKGGFPSIPLIAIFTT |
| 4.67e+06 RLU | 5.14e+06 RLU | 88 | 97 | CD71-binding FN3 domain of SEQ ID NO: 515 (designed binder) MLPAPKNLVVSRVTEDSARLSWTAPDAAFDSFFIGYLEPQPPGEAIALWVPGSERSYDLTGLKPGTEYNVTIQGVKGGFPSTPLIAQFTT |
| 5.76e+06 RLU | 5.2e+06 RLU | 207 | 187 | CD71-binding FN3 domain of SEQ ID NO: 534 (designed binder) MLPAPKNLVVSRVTEDSARLSWTAPDAAFDSFFIGYLEPQPPGEAIHLLVPGSERSYDLTGLKPGTEYNVTIQGVKGGFPSGPLQASFTT |
| 3.24e+06 RLU | 4.13e+06 RLU | 366 | 466 | CD71-binding FN3 domain of SEQ ID NO: 529 (designed binder) MLPAPKNLVVSRVTEDSARLSWTAPDAAFDSFFIGYLEPQPPGEAIDLYVPGSERSYDLTGLKPGTEYNVTIQGVKGGFPSLPLQAHFTT |
| 5.38e+06 RLU | 5.62e+06 RLU | 178 | 186 | CD71-binding FN3 domain of SEQ ID NO: 521 (designed binder) MLPAPKNLVVSRVTEDSARLSWTAPDAAFDSFFIGYLEPQPPGEAIVLWVPGSERSYDLTGLKPGTEYNVTIQGVKGGFPSHPLVAHFTT |
| 5.25e+06 RLU | 3.18e+06 RLU | 241 | 146 | CD71-binding FN3 domain of SEQ ID NO: 533 (designed binder) MLPAPKNLVVSRVTEDSARLSWTAPDAAFDSFFIGYLEPQPPGEAINLFVPGSERSYDLTGLKPGTEYNVTIQGVKGGFPSMPLSAIFTT |
| 3.87e+06 RLU | 2.06e+06 RLU | 233 | 124 | CD71-binding FN3 domain of SEQ ID NO: 512 (designed binder) MLPAPKNLVVSRVTEDSARLSWTAPDAAFDSFFIGYLEPQPPGEAIDLWVPGSERSYDLTGLKPGTEYNVTIQGVKGGFPSDPLDAHFTT |
| 5.37e+06 RLU | 3.7e+06 RLU | 721 | 497 | CD71-binding FN3 domain of SEQ ID NO: 526 (designed binder) MLPAPKNLVVSRVTEDSARLSWTAPDAAFDSFFIGYLEPQPPGEAISLIVPGSERSYDLTGLKPGTEYNVTIQGVKGGFPSDPLIAIFTT |
| 3.55e+06 RLU | 4.22e+06 RLU | 222 | 264 | CD71-binding FN3 domain of SEQ ID NO: 508 (designed binder) MLPAPKNLVVSRVTEDSARLSWTAPDAAFDSFFIGYLEPQPPGEAITLSVPGSERSYDLTGLKPGTEYNVTIQGVKGGFPSEPLIAIFTT |
| 3.34e+06 RLU | 1.85e+06 RLU | 271 | 150 | CD71-binding FN3 domain of SEQ ID NO: 518 (designed binder) MLPAPKNLVVSRVTEDSARLSWTAPDAAFDSFFIGYLEPQPPGEAISLWVPGSERSYDLTGLKPGTEYNVTIQGVKGGFPSDPLGAHFTT |
| 5.64e+06 RLU | 5.38e+06 RLU | 54 | 52 | CD71-binding FN3 domain of SEQ ID NO: 505 (designed binder) MLPAPKNLVVSRVTEDSARLSWTALDAAFDSFFIGYLEPQPPGEAIHLFVPGSERSYDLTGLKPGTEYNVTIQGVKGGFPSEPLIANFTT |
| 5.93e+06 RLU | 6.02e+06 RLU | 48 | 49 | CD71-binding FN3 domain of SEQ ID NO: 525 (designed binder) MLPAPKNLVVSRVTEDSARLSWTAPDAAFDSFFIGYLEPQPPGEAIALYVPGSERSYDLTGLKPGTEYNVTIQGVKGGFPSEPLVATFTT |
| 5.67e+06 RLU | 5.7e+06 RLU | 112 | 113 | CD71-binding FN3 domain of SEQ ID NO: 498 (designed binder) MLPAPKNLVVSRVTEDSARLSWTAPDAAFDSFFIGYLEPQPPGEAIILWVPGSERSYDLTGLKPGTEYNVTIQGVKGGFPSIPLIAVFTT |
| 5.94e+06 RLU | 5.92e+06 RLU | 119 | 119 | CD71-binding FN3 domain of SEQ ID NO: 514 (designed binder) MLPAPKNLVVSRVTEDSARLSWTAPDAAFDSFFIGYLEPQPPGEAIHLFVPGSERSYDLTGLKPGTEYNVTIQGVKGGFPSEPLIANFTT |
| 3.39e+06 RLU | 2.95e+06 RLU | 169 | 147 | CD71-binding FN3 domain of SEQ ID NO: 500 (designed binder) MLPAPKNLVVSRVTEDSARLSWTAPDAAFDSFFIGYLEPQPPGEAIDLLVPGSERSYDLTGLKPGTEYNVTIQGVKGGFPSMPLSAIFTT |
| 4.67e+06 RLU | 4.73e+06 RLU | 264 | 267 | CD71-binding FN3 domain of SEQ ID NO: 516 (designed binder) MLPAPKNLVVSRVTEDSARLSWTAPDAAFDSFFIGYLEPQPPGEAISLWVPGSERSYDLTGLKPGTEYNVTIQGVKGGFPSSPLVAYFTT |
| 4.48e+06 RLU | 4.61e+06 RLU | 281 | 289 | CD71-binding FN3 domain of SEQ ID NO: 530 (designed binder) MLPAPKNLVVSRVTEDSARLSWTAPDAAFDSFFIGYLEPQPPGEAIDLLVPGSERSYDLTGLKPGTEYNVTIQGVKGGFPSEPLFAHFTT |
| 5.48e+06 RLU | 5.03e+06 RLU | 53 | 49 | CD71-binding FN3 domain of SEQ ID NO: 511 (designed binder) MLPAPKNLVVSRVTEDSARLSWTAPDAAFDSFFIGYLEPQPPGEAIDLFVPGSERSYDLTGLKPGTEYNVTIQGVKGGFPSLPLVASFTT |
| 2.34e+06 RLU | 1.49e+06 RLU | 222 | 141 | CD71-binding FN3 domain of SEQ ID NO: 502 (designed binder) MLPAPKNLVVSRVTEDSARLSWTAPDAAFDSFFIGYLEPQPPGEAIGLHVPGSERSYDLTGLKPGTEYNVTIQGVKGGFPSIPLEAKFTT |
| 4.31e+06 RLU | 4.19e+06 RLU | 300 | 292 | CD71-binding FN3 domain of SEQ ID NO: 523 (designed binder) MLPAPKNLVVSRVTEDSARLSWTAPDAAFDSFFIGYLEPQPPGEAIDLLVPGSERSYDLTGLKPGTEYNVTIQGVKGGFPSEPLTAEFTT |
| 3.64e+06 RLU | 3.12e+06 RLU | 166 | 142 | CD71-binding FN3 domain of SEQ ID NO: 517 (designed binder) MLPAPKNLVVSRVTEDSARLSWTAPDAAFDSFFIGYLEPQPPGEAIALVVPGSERSYDLTGLKPGTEYNVTIQGVKGGFPSMPLFAYFTT |
| 3.48e+06 RLU | 3.91e+06 RLU | 283 | 318 | CD71-binding FN3 domain of SEQ ID NO: 522 (designed binder) MLPAPKNLVVSRVTEDSARLSWTAPDAAFDSFFIGYLEPQPPGEAITLYVPGSERSYDLNGLKPGTEYNVTIQGVKGGFPSMPLSAIFTT |
| 3.13e+06 RLU | 2.78e+06 RLU | 148 | 132 | CD71-binding FN3 domain of SEQ ID NO: 499 (designed binder) MLPAPKNLVVSRVTEDSARLSWTAPDAAFDSFFIGYLEPQPPGEAISLYVPGSERSYDLTGLKPGTEYNVTIQGVKGGFPSSPLFADFTT |
